Laboratory results as given in paper PMC3591176.

Target: Bbil-TX, basic PLA2 from Bothriopsis bilineata snake venom (Bothriopsis bilineata)

## crotapotin isoform F3 from Crotalus durissus cascavella rattlesnake venom (natural protein)
  inhibition of the PLA2 activity of Bbil-TX (substrate 4-nitro-3-octanoyloxy-benzoic acid) after preincubation of enzyme and inhibitor for 30 min at 37°C: 50%
